From patent publication US20050282743A1, “Molecular interactions in cells” (Arbor Vita Corporation, priority 2001, published 2005)
Ends that are not written are not given here. * marks the point of attachment. Biotin = O=C1N[C@H]2[C@H](CS[C@H]2CCCCC(=O)*)N1

What was measured:
Assay in all cases: G' assay (10 uM PL peptide), results of TABLE 7 and TABLE 12
Type in all cases: binding
[1] = molecular target: T1, PDZ protein (GST-PDZ fusion) (Homo sapiens, UniProt Q9BXL6); settings: PDZ CARD14, PDZ Domain 1
T1 construct: made in house; host or cells: E. coli (DH5alpha, BL21 or JM109)
T1 sequence (Q9BXL6 1-1004): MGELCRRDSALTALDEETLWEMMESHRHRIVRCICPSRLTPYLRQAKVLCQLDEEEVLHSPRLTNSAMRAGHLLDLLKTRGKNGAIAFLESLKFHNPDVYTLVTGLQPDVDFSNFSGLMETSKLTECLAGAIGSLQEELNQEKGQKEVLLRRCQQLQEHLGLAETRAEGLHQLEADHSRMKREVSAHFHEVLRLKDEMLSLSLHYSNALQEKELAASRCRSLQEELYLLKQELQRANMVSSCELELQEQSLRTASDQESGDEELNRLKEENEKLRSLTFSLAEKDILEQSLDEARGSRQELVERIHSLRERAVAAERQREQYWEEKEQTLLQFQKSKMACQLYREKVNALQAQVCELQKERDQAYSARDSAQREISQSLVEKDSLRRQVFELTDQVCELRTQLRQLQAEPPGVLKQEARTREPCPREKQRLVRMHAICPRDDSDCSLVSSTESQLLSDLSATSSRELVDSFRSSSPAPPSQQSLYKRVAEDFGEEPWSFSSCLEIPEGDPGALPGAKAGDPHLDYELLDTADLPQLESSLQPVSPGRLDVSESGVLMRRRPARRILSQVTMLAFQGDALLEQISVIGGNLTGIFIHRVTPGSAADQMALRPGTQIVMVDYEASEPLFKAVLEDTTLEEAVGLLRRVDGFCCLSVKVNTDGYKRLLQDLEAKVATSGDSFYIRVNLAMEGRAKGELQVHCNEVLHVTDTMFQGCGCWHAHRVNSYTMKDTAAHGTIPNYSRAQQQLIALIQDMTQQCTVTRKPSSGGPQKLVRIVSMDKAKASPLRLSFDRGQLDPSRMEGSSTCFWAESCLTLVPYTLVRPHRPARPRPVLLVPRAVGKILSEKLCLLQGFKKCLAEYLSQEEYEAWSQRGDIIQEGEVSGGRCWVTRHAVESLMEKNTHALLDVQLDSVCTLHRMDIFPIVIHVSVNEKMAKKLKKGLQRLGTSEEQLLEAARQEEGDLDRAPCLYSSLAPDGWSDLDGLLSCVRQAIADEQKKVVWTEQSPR
How it was run: (§1)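 Biotinylated PL peptides at 10 uM (vs 20 uM in G^0 assay) bound to GST-PDZ fusions; PDZ protein at 5 ug/ml unless another concentration listed. Bound peptide read as A450 nm, classified 0–5 (0 = A450 0; 5 = A450 >4 repeated).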

[2] = molecular target: T2, PDZ protein (GST-PDZ fusion) (Homo sapiens, UniProt Q14168); settings: PDZ MPP2, PDZ Domain 1
T2 construct: made in house; host or cells: E. coli (DH5alpha, BL21 or JM109)
T2 sequence (Q14168 1-576): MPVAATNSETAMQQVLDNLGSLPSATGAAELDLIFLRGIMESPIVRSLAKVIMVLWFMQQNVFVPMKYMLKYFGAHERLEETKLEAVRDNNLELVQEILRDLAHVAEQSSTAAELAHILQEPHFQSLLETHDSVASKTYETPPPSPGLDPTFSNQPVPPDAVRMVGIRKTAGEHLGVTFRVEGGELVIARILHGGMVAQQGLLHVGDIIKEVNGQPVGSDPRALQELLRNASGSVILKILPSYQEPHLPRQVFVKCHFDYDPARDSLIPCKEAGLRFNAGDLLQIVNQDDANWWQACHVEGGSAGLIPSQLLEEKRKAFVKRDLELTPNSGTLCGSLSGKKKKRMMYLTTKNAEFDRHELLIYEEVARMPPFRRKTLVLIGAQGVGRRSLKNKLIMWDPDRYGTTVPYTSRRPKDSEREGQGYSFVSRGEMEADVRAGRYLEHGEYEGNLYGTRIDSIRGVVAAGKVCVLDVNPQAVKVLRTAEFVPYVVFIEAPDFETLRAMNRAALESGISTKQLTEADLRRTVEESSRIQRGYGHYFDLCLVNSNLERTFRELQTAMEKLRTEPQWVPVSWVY
How it was run: as §1

[3] = test system: PDZ protein (GST-PDZ fusion); settings: PDZ HEMBA 1003117, PDZ Domain 1
How it was run: as §1

Measured: Classification

5-HT 3A (serotonin receptor 3A) (Biotin-LAVLAYSITLVMLWSIWQYA)
2 (A450 nm 1-2): all assays above
